# B1: 14C2 IgG (antibody, V domains shown)
# VH: QAYLQQSGAELMKPGASMRISCKATGYTFSNYWIEWVKQRPGHGLEWIGEILPGGGGTDYNEKFKGKATFTADTSSNTAYMQLSSLTSEDSAVYYCARSTFYGYDGGLYYFPMDYWGQGTSVTVSP
# VL: DIVMTQSPAIMSASPGEKVTMTCSTNSSISYMHWYQQKPGTSPKRWIYDTSKLASGVPARFSGSGSGTSYSLTISSMEAEDAATYYCHQRSSYPWTFGGGTKLEIK
# notes: variable domain of the heavy chain of 14C2; light chain of 14C2; Mouse IgG2b; also called IgG antibody 14C2; source: mouse hybridoma supernatant, purified (HiTrap Protein G HP, SEC Superdex 200); copies: 2 + 2
# B2: 1‐arm IgG (Fab region of IgG antibody 14C2) (Fab, V domains shown)
# VH: B1 VH
# VL: B1 VL
# notes: Fab region of the heavy chain of 14C2; light chain of 14C2; gene codon-optimised for mammalian cells; also called 14C2 Fab; source: Expi293 cells, purified (Ni-NTA Agarose, SEC Superdex 75); not shown: His tag (inferred from the Ni-NTA purification)
# How the values were obtained:
# Settings in all cases: both partners purified
# [1] = target: T1, norovirus GII.17 P‐domain (Norovirus GII.17, GenBank AKI30060 …, strain); experiment: SPR; Biacore 8K; antibody immobilised, P-domain as analyte; 1:1 kinetic model
# T1 construct: Cloned into a modified pMAL-c6T vector; also called P‐domain of GII.17 strain; norovirus P‐domain GII.17 strain; source: E. coli BL21 (DE3), purified (Ni-NTA Agarose, SEC Superdex 75)
# T1 chain: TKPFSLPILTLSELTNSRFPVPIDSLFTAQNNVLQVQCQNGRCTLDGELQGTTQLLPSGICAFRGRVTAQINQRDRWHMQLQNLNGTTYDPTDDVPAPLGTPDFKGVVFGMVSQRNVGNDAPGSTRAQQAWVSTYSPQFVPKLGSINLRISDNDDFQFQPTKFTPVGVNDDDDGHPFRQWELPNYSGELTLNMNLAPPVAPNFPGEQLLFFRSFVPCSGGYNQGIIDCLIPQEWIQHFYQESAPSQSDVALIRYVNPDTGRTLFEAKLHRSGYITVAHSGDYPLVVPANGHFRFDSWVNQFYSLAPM
# [2] = target: T1, norovirus GII.17 P‐domain; experiment: SPR; Biacore 8K; P-domain immobilised on CM5 by amine coupling, antibody as analyte; PBST, 30 uL/min, 180 s association, 600 s dissociation; 1:1 kinetic model
# [3] = target: T1, norovirus GII.17 P‐domain; experiment: SPR; GII.17 P-domain immobilised on CM5 at 4577 r.u., antibody as analyte; PBST; 1:1 kinetic model
# [4] = target: T1, norovirus GII.17 P‐domain; experiment: SPR; GII.17 P-domain immobilised on CM5 at 458 r.u., antibody as analyte; PBST; 1:1 kinetic model
# [5] = target: T1, norovirus GII.17 P‐domain; experiment: SPR; GII.17 P-domain immobilised on CM5 at 3830 r.u., antibody as analyte; PBST; 1:1 kinetic model
# [6] = target: T1, norovirus GII.17 P‐domain; experiment: SPR; GII.17 P-domain immobilised on CM5 at 138 r.u., antibody as analyte; PBST; 1:1 kinetic model
# [7] = target: T1, norovirus GII.17 P‐domain; experiment: SPR; GII.17 P-domain immobilised on CM5 at 922 r.u., antibody as analyte; PBST; 1:1 kinetic model
# [8] = target: T1, norovirus GII.17 P‐domain; experiment: SPR; GII.17 P-domain immobilised on CM5 at 1059 r.u., antibody as analyte; PBST; 1:1 kinetic model
binder,measurement,setting,value
B1,Kd,[1],1.55 nM
same,koff,[1],0.000129 s⁻¹
same,kon,[1],82900 M⁻¹ s⁻¹
same,Kd,[2],0.000921 nM
same,koff,[2],1.07e-07 s⁻¹
same,kon,[2],116000 M⁻¹ s⁻¹
B2,Kd,[3],167 nM
same,koff,[3],0.0026 s⁻¹
same,kon,[3],15600 M⁻¹ s⁻¹
same,Kd,[4],241 nM
same,koff,[4],0.00246 s⁻¹
same,kon,[4],10200 M⁻¹ s⁻¹
same,Kd,[5],135 nM
same,koff,[5],0.0034 s⁻¹
same,kon,[5],25100 M⁻¹ s⁻¹
same,Kd,[6],170 nM
same,koff,[6],0.0025 s⁻¹
same,kon,[6],14700 M⁻¹ s⁻¹
same,Kd,[7],281 nM
same,koff,[7],0.0024 s⁻¹
same,kon,[7],8550 M⁻¹ s⁻¹
same,Kd,[8],204 nM
same,koff,[8],0.00297 s⁻¹
same,kon,[8],14600 M⁻¹ s⁻¹
